Non-standard residues stand in square brackets, D forms with d. No end group written: not given here. Aib = CC(C)(N)C(=O)O
Target: human glucagon receptor (human, UniProt P47871 26-477)
Assay: cell-based or functional assay

Sequence of human glucagon receptor (P47871 26-477): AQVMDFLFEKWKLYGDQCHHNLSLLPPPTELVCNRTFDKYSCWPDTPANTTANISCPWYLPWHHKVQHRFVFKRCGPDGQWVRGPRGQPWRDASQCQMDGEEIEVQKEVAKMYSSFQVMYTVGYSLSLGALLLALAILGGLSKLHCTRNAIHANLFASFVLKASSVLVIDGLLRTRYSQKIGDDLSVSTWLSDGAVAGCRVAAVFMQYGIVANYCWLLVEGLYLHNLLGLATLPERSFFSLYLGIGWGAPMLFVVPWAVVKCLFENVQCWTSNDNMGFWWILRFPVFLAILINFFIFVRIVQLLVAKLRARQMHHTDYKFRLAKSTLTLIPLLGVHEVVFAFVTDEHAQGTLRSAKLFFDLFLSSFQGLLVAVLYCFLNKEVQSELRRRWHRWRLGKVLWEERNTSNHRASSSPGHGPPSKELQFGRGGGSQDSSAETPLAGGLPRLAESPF

Binder: HSQGTFTSDYSKYLDSCDAQDFVQWLMNT [glucagon derivative of SEQ ID NO: 4]
- In vitro Activity (Relative Activity of SEQ ID NO: 1, %), from cAMP EC50: < 0.1%

Binder: YSQGTFTSDYSKYLDSCEADDFVQWLMNT [glucagon derivative of SEQ ID NO: 7]
- In vitro Activity (Relative Activity of SEQ ID NO: 1, %), from cAMP EC50: < 0.1%

Binder: Y[Aib]QGTFTSDYSKYLDSCDAQDFVQWLINT [glucagon derivative of SEQ ID NO: 8]
- In vitro Activity (Relative Activity of SEQ ID NO: 1, %), from cAMP EC50: < 0.1%

Binder: HSQGTFTSDYSKYLDSCEAQDFVQWLMNT [glucagon derivative of SEQ ID NO: 5]
- In vitro Activity (Relative Activity of SEQ ID NO: 1, %), from cAMP EC50: 0.3%

Binder: HSQGTFTSDYSKYLDSCEADDFVQWLMNT [glucagon derivative of SEQ ID NO: 6]
- In vitro Activity (Relative Activity of SEQ ID NO: 1, %), from cAMP EC50: < 0.1%
